Measurements from patent publication WO2021180110A1.

Molecular target: CD147 (human) (UniProt P35613)
Test: SPR, BIAcore 3000, CD147 amine-coupled on CM5 chip, Spike-RBD as analyte

“new coronavirus S protein (COVID-19 Spike-RBD) (from UniProt P0DTC2 319-541) (ligand; other documents disagree on this pair)” showed a Kd of 185 nM, a koff of 0.00206 s⁻¹ and a kon of 11100 M⁻¹ s⁻¹.
